From the supplement of paper PMC6757056 come the findings set out here.

B1: library; a variant is named by its letters at N, in order (parent)
chain: GCUGUCACCGAGAAACUGUGAAGUAUAUCUUAAACCUGGGCACUUAAAAGAUAUAUGGAGUUAGUAGUGCAACCUGCUCGGUCUGAUGAGUCCNNNNNNGGACGAAACAGC

In data set [1] the parent is B1. In words: FACS-Seq fitted mean relative fluorescence mCherry/BFP without ligand (log10 relative fluorescence); HEK293T; ligand: cyclic di-GMP (c-di-GMP-II aptamer); higher = higher reporter protein expression. The settings on record: ligand present: no. In short, it runs like this: (§1)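 Fluorescence values are fitted normal means of bin counts along the mCherry/BFP axis. HEK293T libraries lentivirally carrying the ribozyme switch in an mCherry reporter, with an EF1α-BFP marker, were enriched, exposed to ligand or not for 48 h, and sorted into 6 bins. Genomic DNA per bin was PCR-amplified, barcoded and run on MiSeq. Means of log10(mCherry/BFP) were scaled to five spiked-in control ribozymes.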

The variants in data set [2] derive from B1. In words: normalized RNA/DNA level without ligand (relative to sTRSVctl = 100) (log10 (% of sTRSVctl)); HEK293T; ligand: cyclic di-GMP (c-di-GMP-II aptamer); higher = less ribozyme self-cleavage, higher mRNA level. The settings on record: reporter: mCherry (pCS4076), ligand present: no. Here is the method: (§2)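 Hammerhead (sTRSV) ribozyme switch libraries with a ligand aptamer grafted on stem I and a randomized N4-6 loop II, cloned into the 3' UTR of mCherry and transiently transfected into HEK293T cells; RNA-Seq 72 h post transfection with ligand added 1 h before transfection; RNA read count / plasmid DNA read count normalized to the non-cleaving sTRSVctl (x100), log10; sequences with >100 DNA reads. FACS-Seq: lentiviral library sorted into 6 bins after 48 h ligand, log-normal fit mean of mCherry/BFP scaled to controls. Printed sequences are partial switch sequences.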

Data set [3] covers variants of B1. In words: FACS-Seq fitted mean relative fluorescence mCherry/BFP with ligand (log10 relative fluorescence); HEK293T; ligand: cyclic di-GMP (c-di-GMP-II aptamer); ligand concentration (+) FACS-Seq: 1 mM; higher = higher reporter protein expression. The settings on record: ligand present: yes. In a few lines: as §1
In data set [4] the parent is B1. In words: normalized RNA/DNA level with ligand (relative to sTRSVctl = 100) (log10 (% of sTRSVctl)); HEK293T; ligand: cyclic di-GMP (c-di-GMP-II aptamer); ligand concentration (+) RNA-Seq: 1 mM; higher = less ribozyme self-cleavage, higher mRNA level. The conditions noted are these: reporter: mCherry (pCS4076), ligand present: yes. Here is the method: as §2

± gives the standard deviation of the averaged measurements.

For GCUGUCACCGAGAAACUGUGAAGUAUAUCUUAAACCUGGGCACUUAAAAGAUAUAUGGAGUUAGUAGUGCAACCUGCUCGGUCUGAUGAGUCCCACUGUGGACGAAACAGC, the “FACS-Seq fitted mean (log10)” value in data set [1] is -0.215 ± 0.023; in data set [3] it was 0.0975 ± 0.08. For the same variant, the “normalized RNA/DNA level without ligand (log10)” value in data set [2] stood at 1.709 ± 0.017. Moreover, the “normalized RNA/DNA level with ligand (log10)” value in data set [4] amounted to 1.83 ± 0.11.

In the case of GCUGUCACCGAGAAACUGUGAAGUAUAUCUUAAACCUGGGCACUUAAAAGAUAUAUGGAGUUAGUAGUGCAACCUGCUCGGUCUGAUGAGUCCAACUAAGGACGAAACAGC, the “FACS-Seq fitted mean (log10)” value in data set [1] is -0.473 ± 0.029; in data set [3], -0.168 ± 0.1. Besides, the “normalized RNA/DNA level without ligand (log10)” value in data set [2] came to 1.51 ± 0.035. Also, the “normalized RNA/DNA level with ligand (log10)” value in data set [4] is 1.74 ± 0.11.

For GCUGUCACCGAGAAACUGUGAAGUAUAUCUUAAACCUGGGCACUUAAAAGAUAUAUGGAGUUAGUAGUGCAACCUGCUCGGUCUGAUGAGUCCUACUAUGGACGAAACAGC, the “FACS-Seq fitted mean (log10)” value in data set [1] is -0.131 ± 0.0047; in data set [3], 0.0664 ± 0.13. In addition, the “normalized RNA/DNA level without ligand (log10)” value in data set [2] was determined as 1.67 ± 0.051. Further, in data set [4], the “normalized RNA/DNA level with ligand (log10)” value came out at 1.83 ± 0.15.

On to GCUGUCACCGAGAAACUGUGAAGUAUAUCUUAAACCUGGGCACUUAAAAGAUAUAUGGAGUUAGUAGUGCAACCUGCUCGGUCUGAUGAGUCCAACUCCGGACGAAACAGC, for which the “FACS-Seq fitted mean (log10)” value in data set [1] was determined as 0.000732 ± 0.015; in data set [3], 0.225 ± 0.013. Further, the “normalized RNA/DNA level without ligand (log10)” value in data set [2] turned out to be 1.815 ± 0.0033. For the same variant, the “normalized RNA/DNA level with ligand (log10)” value in data set [4] came out at 1.91 ± 0.097.

GCUGUCACCGAGAAACUGUGAAGUAUAUCUUAAACCUGGGCACUUAAAAGAUAUAUGGAGUUAGUAGUGCAACCUGCUCGGUCUGAUGAGUCCCACUUAGGACGAAACAGC: the “FACS-Seq fitted mean (log10)” value in data set [1] was -0.231 ± 0.015; in data set [3], -0.0377 ± 0.081. Also, the “normalized RNA/DNA level without ligand (log10)” value in data set [2] worked out at 1.43 ± 0.04. In data set [4], the “normalized RNA/DNA level with ligand (log10)” value amounted to 1.59 ± 0.11.

In the case of GCUGUCACCGAGAAACUGUGAAGUAUAUCUUAAACCUGGGCACUUAAAAGAUAUAUGGAGUUAGUAGUGCAACCUGCUCGGUCUGAUGAGUCCCACUUGGGACGAAACAGC, the “FACS-Seq fitted mean (log10)” value is -0.104 ± 0.083 in data set [1] and 0.131 ± 0.0033 in data set [3]. Also, the “normalized RNA/DNA level without ligand (log10)” value in data set [2] is 1.74 ± 0.026. Besides, the “normalized RNA/DNA level with ligand (log10)” value in data set [4] turned out to be 1.87 ± 0.12.

In the case of GCUGUCACCGAGAAACUGUGAAGUAUAUCUUAAACCUGGGCACUUAAAAGAUAUAUGGAGUUAGUAGUGCAACCUGCUCGGUCUGAUGAGUCCAACUGGGGACGAAACAGC, the “FACS-Seq fitted mean (log10)” value in data set [1] was -0.198 ± 0.17; in data set [3] it was 0.149 ± 0.048. The “normalized RNA/DNA level without ligand (log10)” value in data set [2] was 1.59 ± 0.049. The “normalized RNA/DNA level with ligand (log10)” value in data set [4] is 1.77 ± 0.17.

As for GCUGUCACCGAGAAACUGUGAAGUAUAUCUUAAACCUGGGCACUUAAAAGAUAUAUGGAGUUAGUAGUGCAACCUGCUCGGUCUGAUGAGUCCAACUGAGGACGAAACAGC, the “FACS-Seq fitted mean (log10)” value in data set [1] was -0.155 ± 0.014; in data set [3] it was 0.0803 ± 0.017. Also, the “normalized RNA/DNA level without ligand (log10)” value in data set [2] worked out at 1.54 ± 0.047. For the same variant, the “normalized RNA/DNA level with ligand (log10)” value in data set [4] is 1.68 ± 0.12.

Take GCUGUCACCGAGAAACUGUGAAGUAUAUCUUAAACCUGGGCACUUAAAAGAUAUAUGGAGUUAGUAGUGCAACCUGCUCGGUCUGAUGAGUCCUACUUUGGACGAAACAGC: the “FACS-Seq fitted mean (log10)” value was -0.1 ± 0.037 in data set [1] and 0.192 ± 0.048 in data set [3]. For the same variant, in data set [2], the “normalized RNA/DNA level without ligand (log10)” value came out at 1.68 ± 0.019. In addition, in data set [4], the “normalized RNA/DNA level with ligand (log10)” value was found to be 1.84 ± 0.13.

Take GCUGUCACCGAGAAACUGUGAAGUAUAUCUUAAACCUGGGCACUUAAAAGAUAUAUGGAGUUAGUAGUGCAACCUGCUCGGUCUGAUGAGUCCCAGAAAGGACGAAACAGC: the “FACS-Seq fitted mean (log10)” value in data set [1] is -0.664 ± 0.055; in data set [3], -0.562 ± 0.02. In addition, in data set [2], the “normalized RNA/DNA level without ligand (log10)” value stood at 1.15 ± 0.12. Further, in data set [4], the “normalized RNA/DNA level with ligand (log10)” value was determined as 1.28 ± 0.14.

As to GCUGUCACCGAGAAACUGUGAAGUAUAUCUUAAACCUGGGCACUUAAAAGAUAUAUGGAGUUAGUAGUGCAACCUGCUCGGUCUGAUGAGUCCGACUUGGGACGAAACAGC, the results for the “FACS-Seq fitted mean (log10)” value in data set [1] and in data set [3] were -0.257 ± 0.031 and -0.0923 ± 0.026, respectively. Besides, the “normalized RNA/DNA level without ligand (log10)” value in data set [2] stood at 1.63 ± 0.023. For the same variant, the “normalized RNA/DNA level with ligand (log10)” value in data set [4] was determined as 1.79 ± 0.12.

Turning to GCUGUCACCGAGAAACUGUGAAGUAUAUCUUAAACCUGGGCACUUAAAAGAUAUAUGGAGUUAGUAGUGCAACCUGCUCGGUCUGAUGAGUCCGACUUAGGACGAAACAGC, the “FACS-Seq fitted mean (log10)” value in data set [1] was -0.438 ± 0.043; in data set [3] it was -0.219 ± 0.05. For the same variant, the “normalized RNA/DNA level without ligand (log10)” value in data set [2] is 1.5846 ± 6e-05. Besides, in data set [4], the “normalized RNA/DNA level with ligand (log10)” value stood at 1.76 ± 0.1.

With GCUGUCACCGAGAAACUGUGAAGUAUAUCUUAAACCUGGGCACUUAAAAGAUAUAUGGAGUUAGUAGUGCAACCUGCUCGGUCUGAUGAGUCCGACUUUGGACGAAACAGC, the “FACS-Seq fitted mean (log10)” value is -0.222 ± 0.11 in data set [1] and 0.162 ± 0.028 in data set [3]. The “normalized RNA/DNA level without ligand (log10)” value in data set [2] is 1.723 ± 0.0052. In data set [4], the “normalized RNA/DNA level with ligand (log10)” value came out at 1.85 ± 0.083.
